The record followed here is the RNAGym collection of RNA variant scans (doi:10.7554/elife.80360).

B1: HDV Ribozyme (parent)
chain: GGCCGGCAUGGUCCCAGCCUCCUCGCUGGCGCCGGCUGGGCAACAUUCCGAGGGGACCGUCCCCUCGGUAAUGGCGAAUGGGACCCA

This series covers variants of B1. Put plainly: self-cleavage, relative activity (ratio to wild type); higher = more cleavage; co-transcriptional.
As to G53U U60G, the self-cleavage is 0.972.

Consider G54U A83U, for which the self-cleavage was 0.446.

Consider G55A G73C, for which the self-cleavage came to 0.658.

As to G55A G73U, the self-cleavage was 0.457.

Regarding G55A G76A, the self-cleavage stood at 1.

For the variant G55A G76U, the self-cleavage is 0.918.

G55A G76C: the self-cleavage turned out to be 1.09.

Regarding G53U C86A, the self-cleavage was 1.07.

As for G53A G76C, the self-cleavage came out at 1.08.

As to G53C C64A, the self-cleavage was found to be 0.724.

As for G53C C64U, the self-cleavage was 0.703.

G55C U60A: the self-cleavage amounted to 1.05.

On to G55C U60G, for which the self-cleavage worked out at 0.898.

G55A A56G: the self-cleavage is 0.882.

Consider G55C U79C, for which the self-cleavage was determined as 0.513.

In the case of G55C C61G, the self-cleavage came to 0.959.

For the variant G55C U72A, the self-cleavage amounted to 0.743.

On to G55C U72G, for which the self-cleavage turned out to be 0.449.

Turning to G53A C64G, the self-cleavage came to 0.769.

On to G52U A56G, for which the self-cleavage was determined as 0.816.

Turning to G52U A56U, the self-cleavage is 0.787.

For G55C G73U, the self-cleavage was found to be 0.277.

For the variant G52U G74A, the self-cleavage came to 0.402.

Take G52U G74U: the self-cleavage was found to be 0.629.

For the variant G55A G81A, the self-cleavage is 0.535.

On to G52U C86G, for which the self-cleavage is 1.01.

In the case of G53C C61A, the self-cleavage is 1.04.

For G54U C58G, the self-cleavage turned out to be 0.997.

With G54U C58A, the self-cleavage was determined as 1.07.

On to G54U U65A, for which the self-cleavage was found to be 0.513.

With G55U U65C, the self-cleavage amounted to 0.73.

For A56C U79C, the self-cleavage is 0.379.

Turning to A56G C57G, the self-cleavage amounted to 0.8.

For A56G C57A, the self-cleavage is 0.847.

In the case of G55C U65C, the self-cleavage was 0.867.

Turning to G55C U65A, the self-cleavage is 0.88.

In the case of G52C G81A, the self-cleavage was found to be 0.563.

Consider G52C C84A, for which the self-cleavage was determined as 0.791.

As to G52C G53U, the self-cleavage is 0.782.

Consider G53A C62A, for which the self-cleavage is 1.05.

Consider G53A C62G, for which the self-cleavage was 0.511.

On to G52U A78G, for which the self-cleavage stood at 0.514.

Consider A56G C61G, for which the self-cleavage was found to be 1.12.

Take A56G C61A: the self-cleavage stood at 0.849.

With G53A G54A, the self-cleavage turned out to be 0.896.

For A56C A87G, the self-cleavage came to 0.846.

Turning to G53U C84U, the self-cleavage came to 0.821.

For the variant G54A A87U, the self-cleavage is 0.922.

For G55U C84A, the self-cleavage turned out to be 0.886.

As to G55U U79G, the self-cleavage was found to be 0.591.

Take G53U G82A: the self-cleavage was 0.496.

With G55U A56C, the self-cleavage worked out at 0.944.

Regarding G53C C58G, the self-cleavage was 1.

For G55U C63A, the self-cleavage turned out to be 0.783.

Consider G53A A78C, for which the self-cleavage amounted to 0.104.

G52U G81A: the self-cleavage came out at 0.356.

Turning to G52U C75U, the self-cleavage came to 0.115.

Consider G53A G80A, for which the self-cleavage turned out to be 0.218.

Consider G52U C63G, for which the self-cleavage stood at 0.277.

With G53U C75U, the self-cleavage stood at 0.277.

Take G53A G59A: the self-cleavage is 0.851.

Turning to G53A C84A, the self-cleavage was 0.888.

Consider G53C G68U, for which the self-cleavage was determined as 0.475.

Consider G53C G68A, for which the self-cleavage stood at 0.577.

With G55C C62G, the self-cleavage was determined as 1.06.

Take G54C G59U: the self-cleavage was 1.15.

Consider G53C C86U, for which the self-cleavage stood at 0.799.

For the variant G55A C62G, the self-cleavage is 0.686.

For the variant A56C G68C, the self-cleavage was 0.486.

With G52U G59A, the self-cleavage is 0.982.

Turning to G52U G59U, the self-cleavage is 0.984.

In the case of G54C G80A, the self-cleavage worked out at 0.362.

Consider G55U C58G, for which the self-cleavage was found to be 1.04.

For A56C G81C, the self-cleavage came to 0.266.

As for A56C G81A, the self-cleavage was 0.415.

As to G53A G67A, the self-cleavage was determined as 1.02.

On to G53A G67C, for which the self-cleavage was 1.04.

As for G52C G73A, the self-cleavage was 0.627.

On to G54U U69A, for which the self-cleavage came to 0.899.

G54U U69G: the self-cleavage was found to be 1.03.

G55C G59C: the self-cleavage came to 0.867.

For the variant G53U C85A, the self-cleavage turned out to be 0.931.

Take G55A A83G: the self-cleavage turned out to be 0.919.

Regarding A56C C86G, the self-cleavage came to 0.804.

In the case of A56C C86A, the self-cleavage is 0.87.

On to G52U G67C, for which the self-cleavage came out at 0.295.

As to G55U G82A, the self-cleavage came out at 0.467.

Regarding G55A C58G, the self-cleavage is 0.941.

Turning to G52U C58A, the self-cleavage was 0.888.

With G52U C58G, the self-cleavage was 0.95.

As for G54C C63A, the self-cleavage was determined as 1.02.

With G54C A77G, the self-cleavage worked out at 0.831.

Consider G55C G68A, for which the self-cleavage is 0.967.

Consider G53C A71U, for which the self-cleavage stood at 1.1.

As to G53C G54A, the self-cleavage came to 1.08.

Take A56G A70C: the self-cleavage came to 0.935.

Turning to A56G A70G, the self-cleavage worked out at 1.14.

On to G55U G80C, for which the self-cleavage came to 0.175.

As for G55U G80U, the self-cleavage stood at 0.21.

Regarding A56G A78U, the self-cleavage was 0.181.

For the variant A56G A78C, the self-cleavage was found to be 0.203.

With G55A U65A, the self-cleavage was determined as 1.06.

Regarding G55A U65C, the self-cleavage was 0.863.

On to G55U C86G, for which the self-cleavage was found to be 1.03.

Turning to G54A A78G, the self-cleavage came out at 0.332.

For the variant G54A A78C, the self-cleavage turned out to be 0.247.

Turning to A56C C61A, the self-cleavage is 1.13.

As for G55A A70C, the self-cleavage is 1.06.

In the case of G55A A70U, the self-cleavage turned out to be 0.831.

As for G52C G54C, the self-cleavage worked out at 0.564.

On to G53U G55U, for which the self-cleavage is 0.915.

With G54U C62U, the self-cleavage came to 0.98.

As to G54U C62G, the self-cleavage stood at 1.08.

Turning to G55C U69A, the self-cleavage is 0.973.

On to A56C G67A, for which the self-cleavage worked out at 1.05.

For the variant G53U G81C, the self-cleavage is 0.385.

G53A A71C: the self-cleavage was determined as 0.623.

Consider G53A C66G, for which the self-cleavage came to 0.908.

For the variant G53A C66U, the self-cleavage turned out to be 1.05.

On to G52U G54U, for which the self-cleavage is 0.784.

G52U G54A: the self-cleavage worked out at 0.653.

For A56C C58U, the self-cleavage was 1.07.

As to G53A U79A, the self-cleavage stood at 0.814.

On to G55U A70G, for which the self-cleavage stood at 0.867.

In the case of G55U A70C, the self-cleavage came to 0.997.

As for G54C C62G, the self-cleavage was found to be 0.855.

As to G52U A70G, the self-cleavage was 0.878.

For G55A U79G, the self-cleavage came to 0.85.

Consider G55A U79A, for which the self-cleavage came out at 0.582.

For G54U A78C, the self-cleavage was found to be 0.158.

Turning to G53U C64U, the self-cleavage was 0.853.

With G54U G55A, the self-cleavage worked out at 1.01.

As for G54C G76U, the self-cleavage was determined as 1.11.

For the variant G54C G76C, the self-cleavage is 0.981.

On to G52C C61U, for which the self-cleavage is 0.963.

A56C A83G: the self-cleavage is 1.01.

On to A56C C66A, for which the self-cleavage was 1.21.

With G53A A87U, the self-cleavage amounted to 0.992.

G53A A87C: the self-cleavage turned out to be 1.1.

For the variant G55C G80U, the self-cleavage was 0.216.

For the variant G54U, the self-cleavage worked out at 0.98.

For G54C, the self-cleavage was found to be 0.98.

As to G54A, the self-cleavage worked out at 0.961.

Consider G52U A83C, for which the self-cleavage was found to be 0.259.

G52U A83U: the self-cleavage is 0.494.

On to G55A G80U, for which the self-cleavage amounted to 0.13.

Turning to G53A A56G, the self-cleavage stood at 0.875.

As to G53A A56C, the self-cleavage was 0.787.

As to G53A G81C, the self-cleavage stood at 0.266.

For G54C G74C, the self-cleavage is 0.198.

For G54C G74A, the self-cleavage worked out at 0.314.

Regarding G54U C64U, the self-cleavage was determined as 0.905.

With G54U C64A, the self-cleavage is 0.486.

Turning to A56G C58G, the self-cleavage is 0.911.

With G53C C84A, the self-cleavage worked out at 0.76.

As for G53C C84G, the self-cleavage is 0.696.

On to G54A U65C, for which the self-cleavage worked out at 0.696.

On to G53C A77U, for which the self-cleavage worked out at 0.639.

With G53A C75A, the self-cleavage was determined as 0.225.

For the variant G53A C75U, the self-cleavage was found to be 0.256.

For G53U A83C, the self-cleavage stood at 0.6.

As to G53U A83G, the self-cleavage was 0.739.

Turning to G55C A56G, the self-cleavage came to 1.15.

As for G53C C57G, the self-cleavage was 1.14.

With G53C C57U, the self-cleavage is 0.969.

On to G54C C58U, for which the self-cleavage came out at 1.11.

As for G54C A87G, the self-cleavage was 0.936.
